*1 amine or outer side, *2 acyl side, *3 side chain or, on linkers, in order; H or OH if unused. Where no end group is shown, it is not given here. Side-chain parts run from the residue outwards. The star is where a group is joined. C18 diacid = O=C(O)CCCCCCCCCCCCCCCCC(=O)*; γGlu = O=C(O)[C@H](CCC(=O)[*:2])N[*:1]; AEEA = NCCOCCOCC(=O)O
T1: human GIPR (Homo sapiens, UniProt P48546)
T1 construct: host or cells: COS-7
T1 sequence (P48546 22-466): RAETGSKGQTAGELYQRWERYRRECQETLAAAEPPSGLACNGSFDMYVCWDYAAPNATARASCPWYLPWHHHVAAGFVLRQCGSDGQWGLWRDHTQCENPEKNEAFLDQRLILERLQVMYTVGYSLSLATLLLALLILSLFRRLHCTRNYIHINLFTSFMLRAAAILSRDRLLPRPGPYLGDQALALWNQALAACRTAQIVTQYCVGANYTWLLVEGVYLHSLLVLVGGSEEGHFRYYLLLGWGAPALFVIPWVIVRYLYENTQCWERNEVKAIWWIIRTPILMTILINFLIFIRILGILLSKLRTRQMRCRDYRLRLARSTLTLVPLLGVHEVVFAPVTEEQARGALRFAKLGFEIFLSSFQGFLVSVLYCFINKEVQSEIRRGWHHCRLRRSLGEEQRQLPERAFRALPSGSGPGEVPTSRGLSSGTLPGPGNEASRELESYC

T2: human GLP-2R (Homo sapiens, UniProt O95838)
T2 construct: host or cells: COS-7
T2 sequence (O95838 1-553): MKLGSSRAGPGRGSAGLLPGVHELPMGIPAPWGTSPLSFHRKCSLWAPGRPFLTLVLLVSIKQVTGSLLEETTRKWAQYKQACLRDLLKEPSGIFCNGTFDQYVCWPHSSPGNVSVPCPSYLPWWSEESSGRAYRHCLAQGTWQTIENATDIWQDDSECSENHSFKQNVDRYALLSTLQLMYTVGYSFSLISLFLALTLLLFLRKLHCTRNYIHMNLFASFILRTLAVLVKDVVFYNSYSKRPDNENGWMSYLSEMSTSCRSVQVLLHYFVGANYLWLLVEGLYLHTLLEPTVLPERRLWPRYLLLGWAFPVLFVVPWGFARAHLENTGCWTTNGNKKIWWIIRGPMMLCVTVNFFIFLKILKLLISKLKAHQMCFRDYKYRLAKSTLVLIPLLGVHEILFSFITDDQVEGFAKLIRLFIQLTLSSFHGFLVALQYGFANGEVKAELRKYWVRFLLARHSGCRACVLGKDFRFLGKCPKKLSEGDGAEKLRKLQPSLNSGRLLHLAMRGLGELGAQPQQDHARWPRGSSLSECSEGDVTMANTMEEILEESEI

T3: human SNAP-tagged GIPR (Homo sapiens, UniProt P48546)
T3 construct: host or cells: HEK293A
T3 sequence (P48546 22-466): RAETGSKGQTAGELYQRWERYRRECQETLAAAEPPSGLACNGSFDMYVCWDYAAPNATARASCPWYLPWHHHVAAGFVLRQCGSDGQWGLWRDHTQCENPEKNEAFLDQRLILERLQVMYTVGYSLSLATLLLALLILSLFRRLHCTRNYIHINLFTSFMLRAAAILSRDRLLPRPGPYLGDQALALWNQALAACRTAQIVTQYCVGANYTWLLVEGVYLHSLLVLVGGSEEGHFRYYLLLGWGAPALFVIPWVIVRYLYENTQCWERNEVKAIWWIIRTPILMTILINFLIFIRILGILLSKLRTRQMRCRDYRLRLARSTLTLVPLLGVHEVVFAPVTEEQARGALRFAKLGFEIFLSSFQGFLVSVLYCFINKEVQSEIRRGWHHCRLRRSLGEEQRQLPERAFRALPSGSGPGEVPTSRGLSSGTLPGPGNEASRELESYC

T4: human GIPR (glucose-dependent insulinotropic polypeptide receptor) (human, UniProt P48546 22-466)
T4 sequence (looked up): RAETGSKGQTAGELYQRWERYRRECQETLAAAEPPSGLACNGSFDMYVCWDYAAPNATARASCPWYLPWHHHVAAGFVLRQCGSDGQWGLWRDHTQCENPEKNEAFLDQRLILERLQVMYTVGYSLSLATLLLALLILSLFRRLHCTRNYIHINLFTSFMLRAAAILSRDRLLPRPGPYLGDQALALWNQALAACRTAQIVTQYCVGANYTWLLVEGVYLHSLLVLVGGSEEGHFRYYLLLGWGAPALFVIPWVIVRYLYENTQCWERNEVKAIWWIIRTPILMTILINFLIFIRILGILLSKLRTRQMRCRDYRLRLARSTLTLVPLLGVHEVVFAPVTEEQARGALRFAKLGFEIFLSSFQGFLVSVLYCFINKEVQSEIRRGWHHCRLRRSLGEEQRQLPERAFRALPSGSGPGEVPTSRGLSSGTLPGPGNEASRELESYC

T5: Human N-terminally SNAP-tagged GIPR (human, UniProt P48546 22-466, SNAP tag labeled with Tag-Lite SNAP-Lumi4-Tb)
T5 sequence (looked up): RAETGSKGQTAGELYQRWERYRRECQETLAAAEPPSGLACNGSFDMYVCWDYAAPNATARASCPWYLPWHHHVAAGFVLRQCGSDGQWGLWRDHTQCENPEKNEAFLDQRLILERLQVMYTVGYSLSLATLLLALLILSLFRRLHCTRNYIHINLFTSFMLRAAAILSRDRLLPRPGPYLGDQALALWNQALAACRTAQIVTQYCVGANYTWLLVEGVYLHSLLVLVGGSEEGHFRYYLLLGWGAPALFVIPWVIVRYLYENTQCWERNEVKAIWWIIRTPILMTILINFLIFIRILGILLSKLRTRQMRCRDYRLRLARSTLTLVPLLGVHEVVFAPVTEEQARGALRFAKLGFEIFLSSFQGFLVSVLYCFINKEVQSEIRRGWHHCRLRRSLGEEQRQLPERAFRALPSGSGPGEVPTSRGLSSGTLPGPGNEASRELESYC

T6: human GLP-2R (glucagon-like peptide-2 receptor) (human, UniProt O95838 1-553)
T6 sequence (looked up): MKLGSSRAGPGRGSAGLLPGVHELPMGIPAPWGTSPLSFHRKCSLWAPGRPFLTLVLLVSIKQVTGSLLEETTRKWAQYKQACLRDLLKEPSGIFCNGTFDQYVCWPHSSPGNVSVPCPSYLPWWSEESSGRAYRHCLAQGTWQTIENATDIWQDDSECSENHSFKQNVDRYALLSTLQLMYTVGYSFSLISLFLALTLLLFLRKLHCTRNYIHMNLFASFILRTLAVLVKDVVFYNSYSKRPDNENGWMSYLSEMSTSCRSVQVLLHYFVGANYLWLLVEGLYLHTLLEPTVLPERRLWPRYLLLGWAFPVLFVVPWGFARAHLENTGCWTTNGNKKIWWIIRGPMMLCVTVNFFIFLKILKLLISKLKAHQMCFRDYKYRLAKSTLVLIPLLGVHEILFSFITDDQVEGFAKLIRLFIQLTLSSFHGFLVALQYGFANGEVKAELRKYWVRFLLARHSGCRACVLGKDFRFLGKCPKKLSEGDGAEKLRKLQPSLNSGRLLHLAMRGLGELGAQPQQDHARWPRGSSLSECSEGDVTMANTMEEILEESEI


Assays:
human GIPR = target: T1, human GIPR; assay: cAMP assay (HitHunter) in transiently transfected COS-7 cells expressing human GIPR; format: cell-based
human GLP-2R = target: T2, human GLP-2R; assay: cAMP assay (HitHunter) in transiently transfected COS-7 cells expressing human GLP-2R; format: cell-based; details: COS-7; normalized to highest concentration of the endogenous ligand; read-out: Efficacy GLP-2R (Emax)
human GLP-1R = target: T7, human GLP-1R (Homo sapiens, UniProt P43220); assay: cAMP assay (HitHunter) in transiently transfected COS-7 cells expressing human GLP-1R; format: cell-based
T7 construct: host or cells: COS-7

human SNAP-tagged GIPR = target: T3, human SNAP-tagged GIPR; assay: Receptor internalization assay, HEK293A cells expressing human SNAP-tagged GIPR; format: cell-based
[1] = target: T4, human GIPR (glucose-dependent …); assay: cell-based or functional assay
[2] = target: human GLP-1R (glucagon-like peptide-1 receptor) (human, UniProt P43220 24-463); assay: cell-based or functional assay
[3] = target: T5, Human N-terminally SNAP-tagged GIPR; assay: cell-based or functional assay
[4] = target: T6, human GLP-2R (glucagon-like peptide-2 …); assay: cell-based or functional assay

T7 sequence (P43220 24-463): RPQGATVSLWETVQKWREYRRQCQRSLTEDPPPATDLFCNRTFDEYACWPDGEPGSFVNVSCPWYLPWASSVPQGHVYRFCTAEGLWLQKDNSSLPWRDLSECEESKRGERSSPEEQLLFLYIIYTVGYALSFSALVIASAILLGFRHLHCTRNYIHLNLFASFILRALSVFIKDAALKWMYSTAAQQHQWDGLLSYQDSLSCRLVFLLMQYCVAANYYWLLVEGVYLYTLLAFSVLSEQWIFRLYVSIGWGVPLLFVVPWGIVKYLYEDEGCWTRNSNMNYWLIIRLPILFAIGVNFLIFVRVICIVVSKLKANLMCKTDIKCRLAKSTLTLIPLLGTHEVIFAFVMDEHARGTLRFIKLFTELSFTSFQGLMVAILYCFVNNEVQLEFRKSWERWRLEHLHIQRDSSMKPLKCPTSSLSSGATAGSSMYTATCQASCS

Row | Molecule | Efficacy GIPR [1] | EC50 (nM) GLP-1R [2] [nM] | Efficacy GLP-1R [2] | logEC50 GLP-1R [2] | Absolute hGIPR internalization (AUC) [3] [AUC] | Relative hGIPR internalization (%) [3] [%] | other results
1 | H-HADGTFTSDYSTILDKLAARDFINWLIQTKGKKNDWK([AEEA-AEEA-γGlu-C18 diacid])HNITQ-OH [Compound 25] | – | – | – | – | – | – | Emax (human GIPR; COS-7, normalized to highest concentration of the endogenous ligand, read-out: Efficacy GIPR (Emax)): 107%; EC50 (human GIPR; cAMP, COS-7 cells, human GIPR): 0.398 nM; Emax (human GLP-2R): 117%; Emax (human GLP-1R; COS-7, normalized to highest concentration of the endogenous ligand, read-out: Efficacy GLP-1R (Emax)): 116%; EC50 (human GLP-1R; cAMP, COS-7 cells, human GLP-1R, read-out: EC50 (nM) GLP-1R): 0.05 nM; Absolute hGIPR internalization (AUC) (human SNAP-tagged GIPR; AUC of sigmoid curves up to 1 μM, 60 minutes at 37° C.): 13.1; Relative hGIPR internalization (%) (human SNAP-tagged GIPR; relative to hGIP 1-42 = 100): 35%
2 | HADGTFTSDYSTILDKLAARDFINWLIQTKGKK([AEEA-AEEA-γGlu-C18 diacid])NDWKHNITQ-OH [Compound 24] | 96 | 0.05 | 113 | 10.3 | 15 | 41 | EC50 (nM) GIPR [1]: 0.398 nM; pEC50 GIPR [1]: 9.4
3 | HADGTFTSDYSTILDNLAAK([AEEA-AEEA-γGlu-C18 diacid])DFINWLIQTKGKK-OH (N-terminus assumed; SMILES CC[C@H](C)[C@H](NC(=O)[C@H](Cc1ccccc1)NC(=O)[C@H](CC(=O)O)NC(=O)[C@H](CCCCNC(=O)COCCOCCNC(=O)COCCOCCNC(=O)CC[C@H](NC(=O)CCCCCCCCCCCCCCCCC(=O)O)C(=O)O)NC(=O)[C@H](C)NC(=O)[C@H](C)NC(=O)[C@H](CC(C)C)NC(=O)[C@H](CC(N)=O)NC(=O)[C@H](CC(=O)O)NC(=O)[C@H](CC(C)C)NC(=O)[C@@H](NC(=O)[C@@H](NC(=O)[C@H](CO)NC(=O)[C@H](Cc1ccc(O)cc1)NC(=O)[C@H](CC(=O)O)NC(=O)[C@H](CO)NC(=O)[C@@H](NC(=O)[C@H](Cc1ccccc1)NC(=O)[C@@H](NC(=O)CNC(=O)[C@H](CC(=O)O)NC(=O)[C@H](C)NC(=O)[C@@H](N)Cc1c[nH]cn1)[C@@H](C)O)[C@@H](C)O)[C@@H](C)O)[C@@H](C)CC)C(=O)N[C@@H](CC(N)=O)C(=O)N[C@@H](Cc1c[nH]c2ccccc12)C(=O)N[C@@H](CC(C)C)C(=O)N[C@H](C(=O)N[C@@H](CCC(N)=O)C(=O)N[C@H](C(=O)N[C@@H](CCCCN)C(=O)NCC(=O)N[C@@H](CCCCN)C(=O)N[C@@H](CCCCN)C(=O)O)[C@@H](C)O)[C@@H](C)CC) [Compound 18] | 82 | 0.06 | 112 | 10.2 | 2.1 | – | –
4 | HADGTFTSDYSTILDKLAARDFINWLIQTKGKKNDWKHNITQK([AEEA-AEEA-γGlu-C18 diacid])-OH [Compound 26] | – | 0.04 | 103 | 10.4 | 16.4 | 44 | EC50 (nM) GLP-2R [4]: 5.6 nM; Efficacy GLP-2R [4]: 112; logEC50 GLP-2R [4]: 8.3
5 | HXDGTFISDYSTILDNLAARDFINWLIQTKITK (Aib at position 2; K33 acylated with C10, K(C10); C-terminal amide (-NH2)) [Compound 1] | – | – | – | – | 5.3 | – | –
